Source: patent publication US20110097739A1

Target: HCEC protein fraction
Test: ELISA on the coated protein fraction, lysate treated or not with neuraminidase

“FC5 llama single-domain antibody (sdAb), expressed in fusion with His5 and c-myc tags (VHH)” gave a reduction of binding after neuraminidase treatment of the lysate of 50%.
